Test results from patent US20240294650A1 (Alector, published 2024).
Changes are numbered by the printed parent chain.

T1: human MerTK (human, UniProt Q12866 21-999)
T1 construct: endogenous receptor on cells; also called human MerTK endogenously expressed on SK-MEL-5 cells; MerTK on human macrophages
T1 sequence: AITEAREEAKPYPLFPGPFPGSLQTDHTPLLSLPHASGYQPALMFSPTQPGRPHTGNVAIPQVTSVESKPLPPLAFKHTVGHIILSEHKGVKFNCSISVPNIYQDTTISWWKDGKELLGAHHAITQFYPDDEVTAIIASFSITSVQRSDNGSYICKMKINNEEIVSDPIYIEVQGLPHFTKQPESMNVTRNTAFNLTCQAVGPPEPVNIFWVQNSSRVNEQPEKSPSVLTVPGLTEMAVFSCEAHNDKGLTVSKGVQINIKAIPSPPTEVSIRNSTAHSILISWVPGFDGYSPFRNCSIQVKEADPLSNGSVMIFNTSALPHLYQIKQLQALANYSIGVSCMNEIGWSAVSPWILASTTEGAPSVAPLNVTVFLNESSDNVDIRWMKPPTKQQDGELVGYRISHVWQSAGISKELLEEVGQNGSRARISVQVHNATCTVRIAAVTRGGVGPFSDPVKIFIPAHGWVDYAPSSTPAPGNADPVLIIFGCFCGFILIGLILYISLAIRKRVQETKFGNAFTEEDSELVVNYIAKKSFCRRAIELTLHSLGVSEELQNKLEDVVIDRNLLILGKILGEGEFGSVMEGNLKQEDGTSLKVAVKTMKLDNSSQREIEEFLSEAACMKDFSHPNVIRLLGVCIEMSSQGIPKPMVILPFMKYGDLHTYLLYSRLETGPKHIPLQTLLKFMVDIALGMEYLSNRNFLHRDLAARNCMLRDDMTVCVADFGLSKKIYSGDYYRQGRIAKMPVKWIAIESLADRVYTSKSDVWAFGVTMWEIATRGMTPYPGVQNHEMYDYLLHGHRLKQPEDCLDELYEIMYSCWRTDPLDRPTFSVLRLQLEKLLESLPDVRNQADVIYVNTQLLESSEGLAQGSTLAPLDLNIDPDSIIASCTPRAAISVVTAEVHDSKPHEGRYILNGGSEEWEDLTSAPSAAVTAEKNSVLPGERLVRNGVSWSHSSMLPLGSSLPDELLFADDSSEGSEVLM

T2: recombinant human MerTK extracellular domain (human, UniProt Q12866 21-505)
T2 construct: also called human MerTK ECD; not shown: polyHis or TEVS/Thrombin/murine IgG2a-Fc tag
T2 sequence: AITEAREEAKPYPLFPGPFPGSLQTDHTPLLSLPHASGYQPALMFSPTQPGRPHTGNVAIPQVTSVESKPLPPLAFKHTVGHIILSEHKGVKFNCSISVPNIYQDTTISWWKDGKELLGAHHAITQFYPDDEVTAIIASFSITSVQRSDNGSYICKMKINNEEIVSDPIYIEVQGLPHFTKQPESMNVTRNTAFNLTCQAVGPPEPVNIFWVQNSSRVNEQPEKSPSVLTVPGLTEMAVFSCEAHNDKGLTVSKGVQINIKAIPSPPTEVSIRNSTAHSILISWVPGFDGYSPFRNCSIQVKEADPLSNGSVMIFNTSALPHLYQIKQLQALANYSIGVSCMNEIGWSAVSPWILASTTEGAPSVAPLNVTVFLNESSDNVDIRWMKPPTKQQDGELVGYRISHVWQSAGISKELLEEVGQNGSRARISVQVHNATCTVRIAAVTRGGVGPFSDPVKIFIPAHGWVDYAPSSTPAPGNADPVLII

B1: MTK-208 (antibody, human IgG1, V domains shown)
VH: QVQLQQPGAELVVPGASVRLSCKASGYTFINYWMHWVKQRPGQGLEWIGEIDPSDSYANYNQKFKDKSTLSLDKSSSTAYMQLSSLTSEDSAVYYCARCDYYGRLDYWGQGTTLTVSS
VL: QVVLTQSPAIMSASPGEKVTITCSASSSVSYMLWFQQKPGTSPKLWIYSTSNLASGVPARFSGSGSGTSYSLTISRLEAEDAATYYCQQRSSYPPITFGAGTKLELK
B2: MTK-215 (antibody, human IgG1, V domains shown)
VH: EVQLVESGGGLVKPGGSLKLSCAASGFIFSDYGMHWVRQAPEKGLEWVAYISSGSSTIYYGDTVKGRFTISRDNAKNTLFLQMTSLRSEDTAMYYCAKGGRYGAMDYWGHGTSVTVSS
VL: DIVLTQSPATLSVTPGDSVSLSCRASQSISNNLHWYQQKSHESPRLLIKNPSQSISGIPSRFGARGSGTDFTLIINSVETEDLGVYFCQQSNSWPFTFGSGTKLEIK
B3: MTK-231 (antibody, human IgG1, V domains shown)
VH: DVQLQESGPGLVKPSQSLSLTCSVTGYSITSGYYWNWIRQFPGNKLEWMGYISYDGTYNYHPSLKNRISITRDTSKNQFFLTLNSVTTEDTATFYCTRGGGYWGQGTSVTVSS
VL: DVVMTQTPLSLPVSLGDQASISCRSSQSLVHSDGNTYLHWYLQKPGQSPKLLIYKVSNRFSGVPDRFSGSGSGTDFTLKISRLEAEDLGIYFCSQTTHIPLTFGSGTKLEIK
B4: MTK-221 (antibody, human IgG1, V domains shown)
VH: QVTLKESGPGMLQSSQTLSLTCSFSGFSLSTSGMGVSWIRQPSGKGLEWLAHIYWDDDKRYNTSLQSRLTISKDTSRNQVFLKITSVDTADTATYFCGRLGAYSAFPYYFDYWGQGTTLTVSS
VL: DIQMTQSPSSLSASLGGKVTITCKASQDIHKHIAWYQHKPGKGPRLLIHYTSTLQPGIPSRFSGSGSGRDYSFSISNLEPEDLATYYCLQYDNLWTFGGGTKLEIK
B5: MTK-206 (antibody, human IgG1, V domains shown)
VH: QVQLQQSGAELARPGASVKMSCKASGYTFTSYTMHWVKQRPGQGLEWIGYINPSSGYIKNSQKFKDKATLTADKSSSTAYMQLSSLTSEDSAVYYCARTVYGYYGSSPDYWGQGTTLTVSS
VL: DIQMTQSPSSLSASLGERVSLTCRASQDIGSNLNWLQQEPDGTIKRLIYATSSLESGVPKRFSGSRSGSDYSLTISSLESEDFVDYYCLQYDSSPWTFGGGTKLEIK
B6: MTK-216 (antibody, human IgG1, V domains shown)
VH: EVQLVESGGGLVKPGGSLKLSCAASGFTFSDYGMHWVRQAPEKGLEWVAFISSGSTTIYYADTVKGRFTISRDNAKNTLILQMTSLRSEDTAIYYCTRGGFHLDYWGQGTTLTVSS
VL: SIMMTQSPSSLAVSAGEKVTMGCKSSQSVLYSANQQNYLAWYQQKPGQSLKLLIYWASTRESGVPDRFTGSGSGTDFTLTISSVQAEDLAVYYCHQYFSSWTFGGGTKLEIK
B7: MTK-204 (antibody, human IgG1, V domains shown)
VH: B6 VH with F50Y, S55T, T56S, A61E, I80F, I93M, T97A, F101L, H102L, L103F
VL: B6 VL with S1N, G22S, A33S, Q36K, L50P, Y55Q, G74E, S82R
B8: MTK-202 (antibody, human IgG1, V domains shown)
VH: EVQLVESGGGLVKPGGSLKLSCAASGFTFSDFGMHWVRQVPEKGLEWVAFISGGSNTIYYTDTVKGRFTISRDNAKNTLFLQMTSLRSEDTAMYYCVRNGNSFAYWGQGTLVTVSA
VL: B6 VL with S1N, G22N, A33S, Q36K, L50P, S83N, V84I, V91I, S99F
B9: MTK-225 (antibody, human IgG1, V domains shown)
VH: EVQLQQSGPELVKPGASVKIFCKASGYTFTAYNMDWVKQSHGKSLEWIGDINPNNGGTIYNQKFKGKATLTVDKSSSTAYMELRSLTSEDTAVYYCARRRRYGNTYYWYFDVWGTGTTVTVSS
VL: DIQMTQSPASLSVSVGETVTITCRASENIYSSLAWYQQKQGKSPQLLVYAATNLADGVPSRFSGSGSGTQFYLKINGLQSEDFGSYYCQHFWGTSYTFGGGTKLEIK
B10: MTK-207 (antibody, human IgG1, V domains shown)
VH: QVQLKESGPGLVAPSQSLSITCTVSGISLTSYGVSWVRQPPGKGLEWLGIIWGDGSTNYHSALISRLSISKDNSKSQVFLKLNSLQTDDTATYYCAKGRYGNYEDWYFDVWGTGTTVTVSS
VL: DIQMTQSPASLSASVGETVTITCRASGNIHNYLAWYQQKQGKSPQLLVYNAKTLAAGVPSRFSGSGSGTQYSLKINSLQPEDFGSYYCQHFWSIPLTFGAGTKLELK

Target: T1, human MerTK
Experiment: FACS, SK-MEL-5 cells, 10 ug/ml
Protocol: To determine whether recombinant anti-human MerTK antibodies of the present disclosure bind to human MerTK endogenously expressed on SK-MEL-5 cells and CHO cells overexpressing mouse MerTK (CHO-muMerTK OE cells), as compared to A375 and parental CHO cells as negative controls, the following experiments were performed. SK-MEL-5 cells, A375 cells, CHO-muMerTK OE cells, and CHO parental cells were plated at 100,000 cells/well. Anti-MerTK antibodies were added to the cells at 10 μg/ml. After 60 minutes on ice, cells were washed and then stained with PE-conjugated goat anti-human IgG antibody (Southern Biotech Cat #2040-09, Birmingham, AL) in the presence of Fc block solution on ice for 30 minutes, and then washed twice with cold FACS buffer (2% FBS in PBS). Mouse anti-human MerTK-PE conjugated (Biolegend, Clone 590H11G1E3) or anti-mouse MerTK-PE conjugated (ThermoFisher, Clone DS5MMER) antibodies were used as positive controls. Stained cells were acquired on a BD FACS Canto II cytometer and the mean fluorescence intensity (MFI) was calculated with FlowJo.

Row | Binder | MFI [MFI]
1 | B1 | 14100
2 | B2 | 19000
3 | B3 | 39000
4 | B4 | 42800
5 | B5 | 3270
6 | B6 | 43300
7 | B7 | 33800
8 | B8 | 46100
9 | B9 | 40200
10 | B10 | 1190

Target: T2, recombinant human MerTK extracellular …
Experiment: SPR Carterra LSA, Ab immobilised
Protocol: Binding kinetics of anti-MerTK IgG1 antibodies of the present disclosure to human, cyno, and murine MerTK were evaluated using a Carterra LSA instrument (Carterra, Salt Lake City, UT). […] A HC200M sensor chip (Carterra) was activated using the single channel flow cell with a 7-minute injection of a 1:1:1 mixture of 100 mM MES pH 5.5, 100 mM sulfo-NHS, 400 mM EDC (all reconstituted in MES pH 5.5; 100 μl of each mixed in vial immediately before running assay). After switching to the multi-channel array flow cell, the antibodies were injected over the activated chip in three 96-spot arrays for 10 minutes each. The remaining unconjugated active groups on the chip were then blocked by injecting 1M Ethanolamine pH 8.5 (Carterra) for 7 minutes using the single channel flow cell. The resulting sensor chip contained three spots for each antibody, at three different densities. Two independent experiments were performed as follows, resulting in an N of between one and six determinations for each antibody. Spots that yielded less than 25 RU of analyte binding were excluded from further analysis.
After priming with running buffer (HBS-TE, Carterra) with 0.5 mg/ml BSA (Sigma), the immobilized anti-MerTK antibodies were tested for their ability to bind to several forms of recombinant MerTK extracellular domain, including human, cynomolgus, and mouse orthologs as described above. Estimates of affinity were generated by injecting each analyte over the entire antibody array using the single channel flow cell. MerTK analytes were diluted with running buffer, in a series of six, three-fold serial dilutions starting from 1 μM for human and cynomolgus MerTK, and 600 nM for mouse MerTK. Analytes were injected for 5 minutes, and dissociation was followed for 10 minutes. After each analyte injection, antibodies were regenerated with either Protein A/G Elution Buffer (Thermo) with 1M NaCl (Teknova), or with 10 mM Glycine pH 2.5. Three buffer blanks were run between each series (one species per series). Data were processed and analyzed using NextGenKIT high-throughput kinetics analysis software (Carterra).

Row | Binder | Kd [nM]
11 | B1 | 19
12 | B2 | 370
13 | B3 | 26
14 | B4 | 29
15 | B5 | 150
16 | B6 | 41
17 | B7 | 240
18 | B8 | 33
19 | B9 | 52
20 | B10 | 52
